Experimental data published in the Human Domainome abundance scans (Beltran et al. 2025).
± gives the uncertainty stated by the source.

Experiment: abundance fitness (aPCA) (normalised: wild type 0, dead -1); higher = more abundant; growth selection in yeast, the domain comes from the species named
Settings: Homo sapiens

## E3 ubiquitin-protein ligase NEDD4-like P196A, Q96PU5
  abundance fitness: -0.01 ± 0.07

## E3 ubiquitin-protein ligase NEDD4-like P196D, Q96PU5
  abundance fitness: -0.231 ± 0.08

## E3 ubiquitin-protein ligase NEDD4-like P196F, Q96PU5
  abundance fitness: -0.567 ± 0.098

## E3 ubiquitin-protein ligase NEDD4-like P196H, Q96PU5
  abundance fitness: -0.413 ± 0.097

## E3 ubiquitin-protein ligase NEDD4-like P196K, Q96PU5
  abundance fitness: -0.402 ± 0.11

## E3 ubiquitin-protein ligase NEDD4-like P196L, Q96PU5
  abundance fitness: -0.126 ± 0.078

## E3 ubiquitin-protein ligase NEDD4-like P196M, Q96PU5
  abundance fitness: -0.011 ± 0.071

## E3 ubiquitin-protein ligase NEDD4-like P196N, Q96PU5
  abundance fitness: -0.228 ± 0.11

## E3 ubiquitin-protein ligase NEDD4-like P196Q, Q96PU5
  abundance fitness: -0.217 ± 0.073

## E3 ubiquitin-protein ligase NEDD4-like P196R, Q96PU5
  abundance fitness: -0.106 ± 0.063

## E3 ubiquitin-protein ligase NEDD4-like P196S, Q96PU5
  abundance fitness: -0.138 ± 0.068

## E3 ubiquitin-protein ligase NEDD4-like P196T, Q96PU5
  abundance fitness: -0.239 ± 0.083

## E3 ubiquitin-protein ligase NEDD4-like P196V, Q96PU5
  abundance fitness: -0.184 ± 0.056

## E3 ubiquitin-protein ligase NEDD4-like P196W, Q96PU5
  abundance fitness: -0.416 ± 0.057

## E3 ubiquitin-protein ligase NEDD4-like P196Y, Q96PU5
  abundance fitness: -0.384 ± 0.11

## E3 ubiquitin-protein ligase NEDD4-like P197A, Q96PU5
  abundance fitness: 0.022 ± 0.071

## E3 ubiquitin-protein ligase NEDD4-like P197C, Q96PU5
  abundance fitness: -0.249 ± 0.095

## E3 ubiquitin-protein ligase NEDD4-like P197D, Q96PU5
  abundance fitness: -0.25 ± 0.11

## E3 ubiquitin-protein ligase NEDD4-like P197E, Q96PU5
  abundance fitness: 0.031 ± 0.074

## E3 ubiquitin-protein ligase NEDD4-like P197F, Q96PU5
  abundance fitness: -0.006 ± 0.061

## E3 ubiquitin-protein ligase NEDD4-like P197H, Q96PU5
  abundance fitness: -0.097 ± 0.085

## E3 ubiquitin-protein ligase NEDD4-like P197I, Q96PU5
  abundance fitness: 0.18 ± 0.11

## E3 ubiquitin-protein ligase NEDD4-like P197K, Q96PU5
  abundance fitness: 0.267 ± 0.094

## E3 ubiquitin-protein ligase NEDD4-like P197L, Q96PU5
  abundance fitness: 0.048 ± 0.075

## E3 ubiquitin-protein ligase NEDD4-like P197M, Q96PU5
  abundance fitness: 0.006 ± 0.076

## E3 ubiquitin-protein ligase NEDD4-like P197Q, Q96PU5
  abundance fitness: -0.081 ± 0.099

## E3 ubiquitin-protein ligase NEDD4-like P197R, Q96PU5
  abundance fitness: 0.093 ± 0.057

## E3 ubiquitin-protein ligase NEDD4-like P197S, Q96PU5
  abundance fitness: 0.073 ± 0.06

## E3 ubiquitin-protein ligase NEDD4-like P197T, Q96PU5
  abundance fitness: -0.017 ± 0.087

## E3 ubiquitin-protein ligase NEDD4-like P197V, Q96PU5
  abundance fitness: -0.009 ± 0.06

## E3 ubiquitin-protein ligase NEDD4-like P197W, Q96PU5
  abundance fitness: -0.237 ± 0.089

## E3 ubiquitin-protein ligase NEDD4-like P197Y, Q96PU5
  abundance fitness: -0.058 ± 0.08

## E3 ubiquitin-protein ligase NEDD4-like P224A, Q96PU5
  abundance fitness: -0.765 ± 0.08

## E3 ubiquitin-protein ligase NEDD4-like P224C, Q96PU5
  abundance fitness: -0.772 ± 0.11

## E3 ubiquitin-protein ligase NEDD4-like P224D, Q96PU5
  abundance fitness: -0.772 ± 0.14

## E3 ubiquitin-protein ligase NEDD4-like P224E, Q96PU5
  abundance fitness: -0.612 ± 0.086

## E3 ubiquitin-protein ligase NEDD4-like P224F, Q96PU5
  abundance fitness: -1.1 ± 0.21

## E3 ubiquitin-protein ligase NEDD4-like P224G, Q96PU5
  abundance fitness: -0.734 ± 0.065

## E3 ubiquitin-protein ligase NEDD4-like P224H, Q96PU5
  abundance fitness: -0.694 ± 0.17

## E3 ubiquitin-protein ligase NEDD4-like P224I, Q96PU5
  abundance fitness: -0.877 ± 0.18

## E3 ubiquitin-protein ligase NEDD4-like P224K, Q96PU5
  abundance fitness: -0.552 ± 0.089

## E3 ubiquitin-protein ligase NEDD4-like P224L, Q96PU5
  abundance fitness: -0.93 ± 0.06

## E3 ubiquitin-protein ligase NEDD4-like P224M, Q96PU5
  abundance fitness: -0.796 ± 0.11

## E3 ubiquitin-protein ligase NEDD4-like P224N, Q96PU5
  abundance fitness: -1.15 ± 0.18

## E3 ubiquitin-protein ligase NEDD4-like P224R, Q96PU5
  abundance fitness: -0.94 ± 0.056

## E3 ubiquitin-protein ligase NEDD4-like P224S, Q96PU5
  abundance fitness: -0.711 ± 0.059

## E3 ubiquitin-protein ligase NEDD4-like P224T, Q96PU5
  abundance fitness: -0.828 ± 0.11

## E3 ubiquitin-protein ligase NEDD4-like P224V, Q96PU5
  abundance fitness: -1.01 ± 0.086

## E3 ubiquitin-protein ligase NEDD4-like P224Y, Q96PU5
  abundance fitness: -1.18 ± 0.095

## E3 ubiquitin-protein ligase NEDD4-like Q185C, Q96PU5
  abundance fitness: -0.793 ± 0.065

## E3 ubiquitin-protein ligase NEDD4-like Q185D, Q96PU5
  abundance fitness: -0.097 ± 0.1

## E3 ubiquitin-protein ligase NEDD4-like Q185E, Q96PU5
  abundance fitness: -0.534 ± 0.097

## E3 ubiquitin-protein ligase NEDD4-like Q185F, Q96PU5
  abundance fitness: -0.257 ± 0.12

## E3 ubiquitin-protein ligase NEDD4-like Q185G, Q96PU5
  abundance fitness: -0.723 ± 0.058

## E3 ubiquitin-protein ligase NEDD4-like Q185H, Q96PU5
  abundance fitness: -0.034 ± 0.081

## E3 ubiquitin-protein ligase NEDD4-like Q185I, Q96PU5
  abundance fitness: -0.038 ± 0.11

## E3 ubiquitin-protein ligase NEDD4-like Q185K, Q96PU5
  abundance fitness: -0.398 ± 0.12

## E3 ubiquitin-protein ligase NEDD4-like Q185L, Q96PU5
  abundance fitness: -0.542 ± 0.081

## E3 ubiquitin-protein ligase NEDD4-like Q185N, Q96PU5
  abundance fitness: 0.154 ± 0.12

## E3 ubiquitin-protein ligase NEDD4-like Q185P, Q96PU5
  abundance fitness: -0.539 ± 0.12

## E3 ubiquitin-protein ligase NEDD4-like Q185R, Q96PU5
  abundance fitness: -0.633 ± 0.068

## E3 ubiquitin-protein ligase NEDD4-like Q185S, Q96PU5
  abundance fitness: -1.18 ± 0.15

## E3 ubiquitin-protein ligase NEDD4-like Q185T, Q96PU5
  abundance fitness: -0.143 ± 0.1

## E3 ubiquitin-protein ligase NEDD4-like Q185V, Q96PU5
  abundance fitness: -0.332 ± 0.075

## E3 ubiquitin-protein ligase NEDD4-like Q185Y, Q96PU5
  abundance fitness: 0.011 ± 0.11

## E3 ubiquitin-protein ligase NEDD4-like Q187A, Q96PU5
  abundance fitness: -0.256 ± 0.058

## E3 ubiquitin-protein ligase NEDD4-like Q187D, Q96PU5
  abundance fitness: -0.167 ± 0.097

## E3 ubiquitin-protein ligase NEDD4-like Q187E, Q96PU5
  abundance fitness: -0.767 ± 0.079

## E3 ubiquitin-protein ligase NEDD4-like Q187F, Q96PU5
  abundance fitness: 0.041 ± 0.07

## E3 ubiquitin-protein ligase NEDD4-like Q187G, Q96PU5
  abundance fitness: -0.799 ± 0.07

## E3 ubiquitin-protein ligase NEDD4-like Q187I, Q96PU5
  abundance fitness: -0.247 ± 0.11

## E3 ubiquitin-protein ligase NEDD4-like Q187K, Q96PU5
  abundance fitness: 0.243 ± 0.087

## E3 ubiquitin-protein ligase NEDD4-like Q187L, Q96PU5
  abundance fitness: -0.287 ± 0.071

## E3 ubiquitin-protein ligase NEDD4-like Q187M, Q96PU5
  abundance fitness: -0.069 ± 0.092

## E3 ubiquitin-protein ligase NEDD4-like Q187N, Q96PU5
  abundance fitness: -0.001 ± 0.072

## E3 ubiquitin-protein ligase NEDD4-like Q187R, Q96PU5
  abundance fitness: -0.298 ± 0.066

## E3 ubiquitin-protein ligase NEDD4-like Q187S, Q96PU5
  abundance fitness: -0.242 ± 0.073

## E3 ubiquitin-protein ligase NEDD4-like Q187T, Q96PU5
  abundance fitness: 0.016 ± 0.09

## E3 ubiquitin-protein ligase NEDD4-like Q187V, Q96PU5
  abundance fitness: -0.233 ± 0.06

## E3 ubiquitin-protein ligase NEDD4-like Q187W, Q96PU5
  abundance fitness: -0.907 ± 0.073

## E3 ubiquitin-protein ligase NEDD4-like Q187Y, Q96PU5
  abundance fitness: 0.031 ± 0.1

## E3 ubiquitin-protein ligase NEDD4-like Q220A, Q96PU5
  abundance fitness: -0.096 ± 0.057

## E3 ubiquitin-protein ligase NEDD4-like Q220C, Q96PU5
  abundance fitness: -0.06 ± 0.071

## E3 ubiquitin-protein ligase NEDD4-like Q220D, Q96PU5
  abundance fitness: -0.258 ± 0.088

## E3 ubiquitin-protein ligase NEDD4-like Q220E, Q96PU5
  abundance fitness: -0.555 ± 0.084

## E3 ubiquitin-protein ligase NEDD4-like Q220F, Q96PU5
  abundance fitness: -0.618 ± 0.12

## E3 ubiquitin-protein ligase NEDD4-like Q220G, Q96PU5
  abundance fitness: -0.548 ± 0.071

## E3 ubiquitin-protein ligase NEDD4-like Q220H, Q96PU5
  abundance fitness: -0.775 ± 0.17

## E3 ubiquitin-protein ligase NEDD4-like Q220I, Q96PU5
  abundance fitness: -0.371 ± 0.12

## E3 ubiquitin-protein ligase NEDD4-like Q220K, Q96PU5
  abundance fitness: -0.757 ± 0.12

## E3 ubiquitin-protein ligase NEDD4-like Q220M, Q96PU5
  abundance fitness: -0.362 ± 0.093

## E3 ubiquitin-protein ligase NEDD4-like Q220N, Q96PU5
  abundance fitness: -0.354 ± 0.071

## E3 ubiquitin-protein ligase NEDD4-like Q220P, Q96PU5
  abundance fitness: -0.9 ± 0.078

## E3 ubiquitin-protein ligase NEDD4-like Q220R, Q96PU5
  abundance fitness: -0.557 ± 0.072

## E3 ubiquitin-protein ligase NEDD4-like Q220S, Q96PU5
  abundance fitness: 0.184 ± 0.065
